Data as given in patent publication US20250325682A1, “FKBP52-DERIVED THERAPEUTIC PEPTIDES THAT INHIBIT PATHOLOGICAL TAU AGGREGATION FOR THERAPEUTIC PURPOSES” (priority 2024, published 2025).
Ends that are not written are not given here.

Tests used:
Tau-P301L = target: T1, Tau-P301L (Homo sapiens, UniProt P10636, P618L); test: Thioflavine T fluorescence assay of seeded Tau-P301L aggregation; format: biochemical; details: for Tau-P301L aggregate formation (ThT fluorescence intensity): Tau-P301L 5 μM with Tau seeds, peptide 50 μM, fluorescence at 24 h, ±SEM, n=3, remaining aggregation
T1 construct: made in house; host or cells: Escherichia coli BL21
T1 sequence (P10636 1-441 isoform P10636-8 P301L): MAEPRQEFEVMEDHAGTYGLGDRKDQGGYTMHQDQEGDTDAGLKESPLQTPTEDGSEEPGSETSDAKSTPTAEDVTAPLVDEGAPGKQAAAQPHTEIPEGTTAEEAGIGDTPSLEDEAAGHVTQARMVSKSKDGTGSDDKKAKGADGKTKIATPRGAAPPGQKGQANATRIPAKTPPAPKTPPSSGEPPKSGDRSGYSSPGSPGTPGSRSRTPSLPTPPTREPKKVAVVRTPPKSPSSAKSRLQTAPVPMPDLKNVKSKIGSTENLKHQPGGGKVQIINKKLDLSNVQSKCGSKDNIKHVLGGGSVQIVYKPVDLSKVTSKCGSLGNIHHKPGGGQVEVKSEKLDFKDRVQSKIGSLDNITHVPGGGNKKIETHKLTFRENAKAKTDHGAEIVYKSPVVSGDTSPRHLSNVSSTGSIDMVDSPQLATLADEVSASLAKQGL
Source text: Protein purification. Recombinant wild-type Tau and Tan with P301L mutation proteins was expressed in Escherichia coli (E. coli, BL21) and purified as described; Goedert M, Jakes R (1990) Expression of separate isoforms of human tau protein: correlation with the tau pattern in brain and effects on tubulin polymerization. EMBO J 9, 4225-4230. Combs B, Tiernan C T, Hamel C, Kanaan N M (2017) Production of recombinant tau oligomers in vitro. Methods Cell Biol 141, 45-64.
Effect of P35 on Tau-P30IL aggregation. Tau-P301L protein is used in all aggregation assays. Tau seeds are prepared during a first polymerization: 15UM of monomeric Tau-P301L was incubated at 37° C. in polymerization buffer (PI-buffer): NaH2PO4 25 mM, Na2HPO4 25 mM, NaCl 25 mM, EDTA SmM PH 6,6 with heparin 7.5 μM, Thioflavine-T 50 μM, and Dithiothreitol (DTT) 0.3 mM in a final volume of 100 μl. Fluorescence was monitored every 30 minutes during 25 hours at 480 nm (excitation at 450 nm) using Perkin-Elmer Endvision spectrophotometer. After polymerization, samples (100 μl) were centrifuged at 20,000 g for 1 hour at 4° C. The pellets were resuspended in 100 μl of PI-buffer and sonicated (Branson sonicator) at 40%, 3 times of 1 second, in order to obtain small pre-formed Tau fibrils used as seeds for the second polymerization assay. A volume of 18% of Tau seeds was pre-incubated in the same buffer of the first polymerization, with or without polypeptides, during 1 h at 37° C. Subsequently, 5 μM of monomeric Tau-P301L was added and fluorescence was monitored in the same conditions.

[1] = system: hTau-P301S mouse DRG neurons; test: Western blot of sarkosyl-insoluble Tau fraction of peptide-treated DRG neurons; format: cell-based; details: peptide 200 nM in cell medium for 15 days, compared to scramble control
Method: DRG culture and western-blot analyses. DRG neurons were collected from hTau-P301S mice spinal cords as described by Sleigh and dissociated with collagenase (ThermoFisher Scientific, 17100-017) 2900 U/mL during 90 min followed by 0.1% trypsin (Life Technologies, 15090-046) 3 mM EDTA containing DNaseI (50 μg/mL; Sigma-Aldrich, 04536282001) for 5 min; Sleigh J N, Weir G A, Schiavo G, A simple, step-by-step dissection protocol for the rapid isolation of mouse dorsal root ganglia. BMC RES NOTES, 2016, 9, 82.
Cell treatment was stopped using 1×PBS (VWR, X0515-500) supplemented with 2% horse serum (ThermoFisher Scientific, 16050-122), and DRG neurons were dissociated with a Pasteur pipette. Cells were then centrifuged for 5 min at 1,300 g and the pellet was resuspended in DMEM (Fisher Scientific, 12077549) with 9% fetal bovine serum. After filtration on a 0.40 μm filter followed by centrifugation 5 min at 1,300 g. the pellet was resuspended in neurobasal medium complemented with B27 (50×), L-glutamine (100×) (Life Technologies, 11530536 and 25030024 respectively), NGF 2.5 S (27 ng/ml; ThermoFisher, 13257-019) and distributed in 2 wells of a 6-well culture plate. Cell cultures were maintained for 15 days in vitro (DIV) and the cell medium complemented with mitomycine C (Sigma-Aldrich, M4287) and 5-Fluorodeoxy-uridine (Sigma-Aldrich, F0503) was changed twice a week. Cells were harvested by scraping, centrifuged for 10 min at 200 g and the pellet was homogenized using PotterElvehjem 18 in cold extraction buffer (50 mM Tris-HCl, pH 7.5, 100 mM NaCl, 0.5% SDS, 2 mM CaCl2, 2 mM MgCl2) supplemented with a cocktail of protease and phosphatase inhibitors (Roche, 11836145001). […] Each sample was analyzed on a 10% SDS Page gel and transferred onto iBlot™ Gel Transfer membranes (Invitrogen, IB23001, IB24002). […] Images were recorded with the GeneGnome5 (Syngene). Quantification was performed using Genetools analysis software (Syngene).
DRGs treatment with peptides. […] After cell lysis, lysates were then analyzed by western-blot as described in “DRG culture and western-blot analyses”.

Molecule	Tau-P301L aggregate formation (ThT fluorescence intensity) (Tau-P301L)	insoluble Tau forms / Tau-P301S aggregation (western blot, sarkosyl-insoluble fraction) [1]	other results
AKPNEGAIVEVALEGYYKDKLFDQRELRFEIGEGE (Ac-AKPNEGAIVEVALEGYYKDKLFDQRELRFEIGEGE; not fully specified (C-terminus); listed as Homo sapiens) [P35]	80.6%		
AKPNEGAIVEVALEGYYKDKLFDQRELRFEIGEGENLDLPYGLERAIQRM (listed as Homo sapiens) [P50]			effect on Tau-P301L aggregation in vitro (in words) (Tau-P301L; in vitro incubation of Tau-P301L with peptide, data not shown): comparable effects than P35
IRFKVLEGLYGEVDEAKEGNEAKAEGLQEYPDFIR [P35sc, reference compound]	91.4%		
YARAAARQARA-P35 (YARAAARQARAAKPNEGAIVEVALEGYYKDKLFDQRELRFEIGEGE) [YARA-P35]		tends to show a decrease of Tau-P301S aggregation	
YARAAARQARA-P50 (peptide) YARAAARQARAAKPNEGAIVEVALEGYYKDKLFDQRELRFEIGEGENLDLPYGLERAIQRM		decrease of insoluble Tau forms	insoluble Tau forms / Tau-P301S aggregation (western blot, sarkosyl-insoluble fraction) ([1]; listed as YARA-PSO): tends to show a decrease of Tau-P301S aggregation
